Data as given in patent US20200277335A1 (LARRK BIO, published 2020).

Assays:
chemokine receptor CCR8 [1] = biological target: chemokine receptor CCR8 (UniProt P51685); assay: cell-based or functional assay
chemokine receptor CCR8 [2] = biological target: chemokine receptor CCR8 (UniProt P51685 1-355, limits assumed); assay: cell-based or functional assay
chemokine receptor CCR8 (UniProt P51685 1-355, limits assumed), sequence (P51685 whole entry): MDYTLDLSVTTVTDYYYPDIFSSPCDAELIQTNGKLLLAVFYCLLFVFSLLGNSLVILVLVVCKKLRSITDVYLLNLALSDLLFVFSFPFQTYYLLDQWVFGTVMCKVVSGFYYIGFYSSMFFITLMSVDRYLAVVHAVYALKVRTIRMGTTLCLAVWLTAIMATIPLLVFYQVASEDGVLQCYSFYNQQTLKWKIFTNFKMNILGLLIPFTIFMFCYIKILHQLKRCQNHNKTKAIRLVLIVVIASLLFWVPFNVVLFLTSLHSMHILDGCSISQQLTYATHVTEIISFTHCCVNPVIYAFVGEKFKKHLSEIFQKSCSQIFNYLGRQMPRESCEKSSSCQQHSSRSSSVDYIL

chemokine receptor CCR8 (UniProt P51685), sequence (P51685 whole entry): as above

Row | Molecule | inhibition of 1-309 induced chemotaxis (IC50) (chemokine receptor CCR8 [1]) [nM] | other results
1 | MC148 fusion protein MC148p-TAT-6xHis | 200 | 
2 | recombinant MC148 protein (from UniProt Q98314 25-104) (ligand) |  | inhibition of 1-309 induced chemotaxis of cells expressing CCR8 (IC50) (chemokine receptor CCR8 [1]): 2 nM
3 | synthetic MC148 protein (from UniProt Q98314 1-104) (ligand) | > 15000 | 
4 | VSLARRKCCL [peptide fragment VL-10] |  | inhibition of 1-309 induced chemotaxis (IC50) (chemokine receptor CCR8 [2]): > 15000 nM
